Experimental findings from US20180194830A1 (COMMISSARIAT A L ENERGIE ATOMIQUE ET AUX ENERGIES …, published 2018) are described below.

This assay concerns the target T1, ILT4-Fc (recombinant ILT4 receptor fused to the Fc part of a human IgG, R&D Biosystems) (human, UniProt Q8N423 22-458).
T1 construct: Bought reagent (R&D); also called ILT4/LILRB2/CD85d; not shown: Fc part of a human IgG
Briefly: dimer covalently coated on Bio-Plex beads, ILT4-Fc at 2 µg/ml, PE anti-human IgG, flow cytometry. The method, then: To test the binding to HLA-G receptors ILT2, ILT4, and KIR2DL4, 12 μg of dimers obtained according to example 2 were covalently coated on Bio-Plex-COOH polystyrene beads (Bio-Rad) according to the manufacturer's recommendations. Beads were then resuspended at a concentration of 2000 beads per 50 μl in 1× Luminex assay buffer (Interchim). Recombinant receptors fused to the Fc part of a human IgG (ILT2-Fc, ILT4-Fc, R&D Biosystems) were then added at 2 μg/ml. Beads and receptors were then incubated for 90 minutes in the dark on a shaker before wash twice with 200 μl of 1×PBS, 0.05% Tween. Beads were then resuspended in 50 μl of PBS Luminex assay Buffer containing 2 μl g/ml of Phycoerythrin-conjugated Goat anti Human IgG antibody (Sigma) for 30 minutes in the dark on a rotating shaker. Beads were then washed twice with 200 μl of 1×PBS, 0.05% Tween, and resuspended in 300 μl of 1×PBS.
Fluorescence, indicative of peptide recognition by the receptors was evaluated by flow cytometry performed on an Epics XL Cytometer (Beckman Coulter) using EXPO32 software (Beckman Coulter).
In general terms: In flow cytometry, cells or beads pass a laser one at a time.

T1 sequence (Q8N423 22-458 limits assumed): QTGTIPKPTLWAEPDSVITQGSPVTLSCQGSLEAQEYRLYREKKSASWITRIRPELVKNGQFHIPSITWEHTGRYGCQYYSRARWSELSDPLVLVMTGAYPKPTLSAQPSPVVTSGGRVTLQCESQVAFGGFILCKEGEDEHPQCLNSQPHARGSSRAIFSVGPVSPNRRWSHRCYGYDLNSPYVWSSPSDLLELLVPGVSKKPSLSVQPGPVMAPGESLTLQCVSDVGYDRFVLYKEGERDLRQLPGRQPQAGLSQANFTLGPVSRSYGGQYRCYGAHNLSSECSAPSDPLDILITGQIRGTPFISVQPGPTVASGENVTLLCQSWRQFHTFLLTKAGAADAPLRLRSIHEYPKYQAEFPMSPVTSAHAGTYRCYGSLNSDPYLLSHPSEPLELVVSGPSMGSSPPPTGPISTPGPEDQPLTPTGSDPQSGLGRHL

B1: (alpha1-alpha 3)×2 dimer of SEQ ID NO:4 (peptide)
chain: GSHSMRYFSAAVSRPGRGEPRFIAMGYVDDTQFVRFDSDSACPRMEPRAPWVEQEGPEYWEEETRNTKAHAQTDRMNLQTLRGYYNQSEADPPKTHVTHHPVFDYEATLRCWALGFYPAEIILTWQRDGEDQTQDVELVETRPAGDGTFQKWAAVVVPSGEEQRYTCHVQHEGLPEPLMLRWKQ
modifications: intrachain disulfide between cysteines 111 and 167; interchain disulfide bridge between Cysteine 42 of the two monomers
notes: Synthetic disulfide-linked homodimer; in the assay covalently coated on Bio-Plex-COOH polystyrene beads; also called (alpha 3-alpha1)×2; (alpha1-alpha 3)x2
B1: the binding result is “binds”.
